Results on two substances are retold here after article PMC4885069.

Values joined by “and” are separate entries in the source; they are usually repeats but may differ in a detail not shown here. Equal values may be shown once. Read-outs that look alike come from different tables or passages of the source. Some results are limits rather than exact numbers.

Experiment [1] addresses synaptotagmin LD (Rattus norvegicus) (UniProt P29101). Nature of the experiment: ITC. The following applies: cited from earlier work.
UniProt P29101, sequence (P29101 1-60): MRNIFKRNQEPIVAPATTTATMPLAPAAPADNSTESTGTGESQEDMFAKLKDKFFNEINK
In experiment [2] the target is GST-hSV2C 455-579 (human synaptic vesicle glycoprotein 2C, luminal domain 4, GST fusion) (UniProt Q496J9). Nature of the experiment: SPR (Biacore X100), kinetic evaluation. The conditions noted are these: pH 7.3; 25 °C; PBS (composition not given) at pH 7.3; PBS (pH 7.3).
UniProt Q496J9, sequence (Q496J9 whole entry, the tested form may be a part): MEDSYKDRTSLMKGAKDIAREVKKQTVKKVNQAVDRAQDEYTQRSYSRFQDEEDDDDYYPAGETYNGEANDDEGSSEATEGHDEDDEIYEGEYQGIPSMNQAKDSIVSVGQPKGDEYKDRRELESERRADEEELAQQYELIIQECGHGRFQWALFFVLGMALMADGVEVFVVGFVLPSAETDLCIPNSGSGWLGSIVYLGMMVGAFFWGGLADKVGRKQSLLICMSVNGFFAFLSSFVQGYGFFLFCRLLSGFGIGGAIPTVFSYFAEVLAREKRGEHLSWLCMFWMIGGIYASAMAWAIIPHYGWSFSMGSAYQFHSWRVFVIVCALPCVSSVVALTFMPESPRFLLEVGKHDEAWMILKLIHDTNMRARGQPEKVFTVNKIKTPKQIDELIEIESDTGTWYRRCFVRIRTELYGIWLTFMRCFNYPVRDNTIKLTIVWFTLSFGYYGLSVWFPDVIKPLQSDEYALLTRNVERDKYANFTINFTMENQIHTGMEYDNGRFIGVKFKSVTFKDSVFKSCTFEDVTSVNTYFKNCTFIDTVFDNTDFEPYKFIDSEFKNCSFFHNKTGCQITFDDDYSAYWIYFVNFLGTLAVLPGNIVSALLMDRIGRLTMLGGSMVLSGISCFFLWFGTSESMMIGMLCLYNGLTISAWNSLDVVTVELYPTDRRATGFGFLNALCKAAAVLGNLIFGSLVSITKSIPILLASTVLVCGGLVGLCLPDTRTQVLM
The target is the same in experiment [3]. The following applies: 25 °C, PBS (composition not given) at pH 7.3, 150 mM NaCl at pH 5.0.

BoNT/B (from UniProt P10844): the Kd in experiment [1] was 140 nM and 34 nM.
Take “Botulinum neurotoxin serotype A HC fragment (HCA / HCAS), 50 kDa cell-binding domain”: in experiment [2], the KD Kinetics stood at 390 nM, the ka amounted to 310000 M⁻¹ s⁻¹ and the kd worked out at 0.12 s⁻¹. For the same substance, in experiment [3] (pH 5.0), the KD Steady State was over 1200 nM. Besides, the KD Steady State in experiment [3] (pH 7.3) worked out at 400 nM.

For orientation: Kd means the concentration at which binding is half-saturated.
